In patent US20060140970A1, “Proteic binding partners of TCTP and methods of modulating tumor reversion or cell apoptosis” (priority 2003, published 2006):
Like-named read-outs stand apart in the source and are kept apart here.

What was measured:
Arf1-GAP / [D17]ARF1 = Arf1-GAP / [D17]ARF1 (Homo sapiens, UniProt P84077); assay: GTP-GDP exchange activity of Arf1-GAP on [D17]ARF1, tryptophan fluorescence; assay type: biochemical; details: 30 uM TCTP, 0.5 uM [D17]ARF1-GDP, 100 uM Arf-GAP; presence vs absence of TCTP
Sequence of Arf1-GAP / [D17]ARF1 (P84077 18-181 limits assumed): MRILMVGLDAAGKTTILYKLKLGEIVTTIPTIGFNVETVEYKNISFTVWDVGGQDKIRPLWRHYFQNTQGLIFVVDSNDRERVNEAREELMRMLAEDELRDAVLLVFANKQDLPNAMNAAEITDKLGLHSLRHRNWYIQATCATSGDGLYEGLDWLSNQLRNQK
Experimental: Into a buffer containing 1 mM free Mg^2+, 30 uM TCTP and 0.5 uM [D17]ARF1 -GDP were added. The reaction was initiated by the addition of 40 uM GTP and 2 mM EDTA. To stop the reaction, 2 mM MgCl2 was added. The Arf-GAP, at a concentration of 100 uM, was added. The reaction was measured in presence and absence of TCTP. […] In particular, it is shown that TCTP inhibits the GTP-GDP exchange catalyzed by Arf1-GAP, implicating that Arf1 is kept in its active conformation in presence of TCTP.

bovine brain tubulin = assay: In vitro tubulin polymerization assay (absorbance at 340 nm); assay type: biochemical; details: 3 μg purified protein, 2 mg/ml tubulin, 32° C.
Experimental: In vitro tubulin polymerization assays. Pure bovine brain tubulin protein was reconstituted at a final concentration of 10 mg/ml in cold G-PEM buffer (80 mM Piperazine-N,N′-bis-[2-ethanesulfonic acid] equisodium salt (PIPES), 0.5 mM magnesium chloride (MgCl2), 1 mM ethylene glycol-bis-(b-amino-ethyl ether)-N,N,N′,N′-tetra-acetic acid (EGTA), 1 mM Guanosine 5′-triphosphate (GTP), pH 6.9). Samples of 2 mg/ml tubulin in G-PEM buffer were incubated either with 3 μg of ovalbumin (negative control), with 3 μg of purified recombinant TCTP protein, or with […] of purified recombinant OP18 protein. Then, the samples were placed in quartz cuvettes and incubated at 32° C. Tubulin polymerization was observed by measuring the absorbance of the solution at 340 nm over time.
Since TCTP exerts tubulin and microtubules binding properties (Gachet et al., J. Cell Sci., 1 12(Pt 8): 1257-1271 (1999)), whether TCTP could directly regulate the microtubule dynamics was investigated. An in vitro tubulin polymerization assay, using purified tubulin, was developed. […] In the presence of 3 μg of purified OP18 from E. Coil, the polymerization of tubulin was abolished.

eEF1A = molecular target: T1, eEF1A (Oryctolagus cuniculus, UniProt P68105); assay: Guanine nucleotide exchange assay on eEF1A (eEF1A-[3H]GDP dissociation); assay type: biochemical, rabbit
T1 construct: Rabbit liver eEF1A was purified as described in Shalak et al; from tissue; host or cells: rabbit liver
T1 sequence (P68105 1-462): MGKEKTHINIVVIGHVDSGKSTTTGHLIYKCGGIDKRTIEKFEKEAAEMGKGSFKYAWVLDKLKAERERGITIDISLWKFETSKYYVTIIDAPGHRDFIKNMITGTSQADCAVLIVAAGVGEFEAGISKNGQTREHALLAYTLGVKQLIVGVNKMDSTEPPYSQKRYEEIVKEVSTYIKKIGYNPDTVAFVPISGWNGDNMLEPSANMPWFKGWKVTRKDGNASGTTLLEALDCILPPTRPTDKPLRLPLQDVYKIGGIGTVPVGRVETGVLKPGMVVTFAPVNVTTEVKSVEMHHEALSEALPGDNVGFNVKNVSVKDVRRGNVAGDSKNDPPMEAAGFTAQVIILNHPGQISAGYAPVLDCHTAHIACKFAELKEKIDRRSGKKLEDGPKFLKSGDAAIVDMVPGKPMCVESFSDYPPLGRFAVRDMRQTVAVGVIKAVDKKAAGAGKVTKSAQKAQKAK
Experimental: (§1) Guanine nucleotide exchange assay. Rabbit liver eEF1A was purified as described in Shalak et al., Ukr Biokhim Zh, 69: 104-9 (1997), incorporated herein by reference. The guanine nucleotide exchange on eEF1A was monitored as described in Negrutskii et al., J Biol Chem, 274: 4545-50 (1999) and Bec et al., J Biol Chem, 269: 2086-92 (1994), both of which are incorporated herein by reference. The eEF1A-[^3H]GDP complex was prepared following incubation of 4 μM eEF1A with 4 μM [^3H]GDP (Amersham Biosciences; 1500 Ci/mol) in 80 μl of 45 mM Tris-HCl (pH 7.5) containing 0.5 mM DTT, 10 mM magnesium acetate, 100 mM NH4Cl, 1 mg/ml bovine serum albumin and 25% glycerol for 5 minutes at 37° C. The reaction mixture was placed on ice and diluted by addition of 640 μl of ice-cold exchange buffer [20 mM Tris-HCl (pH 7.5), 10 mM magnesium acetate, 50 mM NH4Cl, 10% glycerol]. The exchange reaction was conducted at 0° C. after addition of 160 μl of exchange buffer containing nucleotide and specified exchange factors. Aliquots of 100 μl were taken at times indicated and immediately filtered through nitrocellulose filters (Millipore; pore size 0.45 μm). Filters were washed 3 times with 1 ml of ice-cold washing buffer [20 mM Tris-HCl (pH 7.5), 10 mM magnesium acetate, 100 mM NH4Cl, 0.1 mg/ml bovine serum albumin], dried and counted in a liquid scintillator.
The functional relevance of a TCTP and eEF1A association was further investigated by monitoring the effects of TCTP on the rate of dissociation of GDP from the eEF1A-[^3H]-GDP complex. Whether TCTP preferentially binds to the GDP-bound form of the factor (and pushes the equilibrium toward the formation of eEF1A-GDP) or associates with the nucleotide free form of eEF1A (and displaces the exchange reaction toward the formation of eEF1A) was determined.
This corresponded to a rate of 0.082±0.004 pmol GDP exchanged/min/pmol of eEF1A. In the absence of free GDP in the incubation mixture, the eEF1A-[^3H]-GDP complex remained stable over a period of 40 minutes. Increasing amounts of TCTP (0.2 μM to 3.0 μM) were added in the exchange assay and the rate of dissociation of the eEF1A-[^3H]-GDP complex was monitored in the presence of 150 μM free GDP (FIG. 15A).

[1] = molecular target: T2, eEF1A (eEF1Bαγ-mediated GDP exchange) (Oryctolagus cuniculus, UniProt P68105); assay: eEF1Bαγ-mediated GDP exchange on eEF1A; assay type: biochemical, rabbit; details: TCTP at a final concentration of 2 μM
T2 construct: Rabbit liver eEF1A was purified as described in Shalak et al; from tissue; host or cells: rabbit liver (eEF1A only)
T2 sequence (P68105 2-462 limits assumed): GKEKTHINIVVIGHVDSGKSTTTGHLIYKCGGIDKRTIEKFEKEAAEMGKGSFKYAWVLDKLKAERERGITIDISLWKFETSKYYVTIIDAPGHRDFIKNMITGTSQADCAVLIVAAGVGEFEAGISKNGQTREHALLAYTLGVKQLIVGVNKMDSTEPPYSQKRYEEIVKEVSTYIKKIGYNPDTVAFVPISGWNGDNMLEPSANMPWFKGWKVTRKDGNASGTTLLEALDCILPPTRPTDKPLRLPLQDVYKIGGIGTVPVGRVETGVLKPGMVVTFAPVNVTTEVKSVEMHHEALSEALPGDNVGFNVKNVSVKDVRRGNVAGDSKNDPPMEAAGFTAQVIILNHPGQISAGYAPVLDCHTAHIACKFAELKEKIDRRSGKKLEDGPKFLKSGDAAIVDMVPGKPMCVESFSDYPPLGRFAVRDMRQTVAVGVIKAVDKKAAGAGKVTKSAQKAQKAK
Experimental: as §1, with “scintillator. […]” for “scintillator.”

[2] = molecular target: T3, eEF1A (eEF1Bβ-mediated GDP exchange) (Oryctolagus cuniculus, UniProt P68105); assay: eEF1Bβ-mediated GDP exchange on eEF1A; assay type: biochemical, rabbit; details: TCTP at a final concentration of 2 μM; simple first-order
T3 construct: Rabbit liver eEF1A was purified as described in Shalak et al; Full-length TCTP, eEF1Bβ and NKTR cDNAs were cloned in-frame into pGEX-6P; GST (N, cleaved yes); made in house; host or cells: eEF1Bβ: E. coli BL21DE3; eEF1A: purified from rabbit liver
T3 sequence (P68105 2-462 limits assumed): T2 sequence (P68105 2-462 limits assumed)
Experimental: as §1, with “scintillator. […]” for “scintillator.”

## TCTP: purified recombinant TCTP protein, bacterially expressed, GST moiety removed
Arf1-GAP / [D17]ARF1
  GTP-GDP exchange catalyzed by Arf1-GAP: inhibits
Bovine brain tubulin
  polymerization of purified tubulin: did not appear to affect the polymerization rate
eEF1A
  guanine nucleotide exchange activity: devoid of exchange activity
eEF1A; 3 μM TCTP, 150 μM free GDP
  rate of GDP dissociation: 0.026±0.003 pmol GDP exchanged/min/pmol of eEF1A
eEF1A; 150 μM free GDP, TCTP 0.2 μM to 3.0 μM, saturation kinetics, read-out: apparent dissociation constant Kd (inhibition of GDP exchange on eEF1A)
  Kd: 1200 ± 200 nM
eEF1A; TCTP by itself
  binding of nucleotides by the protein itself: did not bind nucleotides
eEF1A; unlabeled free GTP (150 μM) in the exchange reaction, read-out: apparent Kd of TCTP for the GDP form of eEF1A
  Kd: 1600 ± 300 nM
eEF1A; with TCTP, unlabeled free GTP (150 μM) instead of GDP
  rate of GDP dissociation: 0.024±0.003 pmol GDP exchanged/min/pmol of eEF1A
[1]
  initial rate of GDP exchange in the presence of eEF1Bαγ: 0.96 min⁻¹
[2]
  initial rate of GDP exchange in the presence of eEF1Bβ: 0.294 min^−1 per pmol of eEF1Bβ
